B1: ZNF263 (parent)
chain: QRTHTGEKPYKCPECGEIFAHSSN
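Further: lentivirally expressed fusions sorted by FACS into six bins by GFP to DsRed ratio, PSI derived from sequencing read proportions per bin multiplied by bin number.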

In the data set the parent is B1. Nature of the data set: protein stability index of a GFP-peptide fusion (GPS, HEK-293T) (PSI 1-6); higher = more stable. To be noted: c terminus: a fixed tail appended.
As to QRTHTGEKPYKEPECGEIFAHSSN [C12E], the protein stability index was determined as 4.53.

As for QRTHTGEKPYKNPECGEIFAHSSN [C12N], the protein stability index is 4.45.

Take QRTHTGEKPYKRPECGEIFAHSSN [C12R]: the protein stability index was found to be 4.2.

Regarding QRTHTGEKPYKQPECGEIFAHSSN [C12Q], the protein stability index was determined as 4.35.

As to QRTHTGEKPYKVPECGEIFAHSSN [C12V], the protein stability index was 3.31.

Regarding QRTHTGEKPYKYPECGEIFAHSSN [C12Y], the protein stability index is 4.3.

Consider QRTHTGEKPYKWPECGEIFAHSSN [C12W], for which the protein stability index was determined as 3.62.

Take QRTHTGEKPYKSPECGEIFAHSSN [C12S]: the protein stability index was determined as 4.52.

Take QRTHTGEKPYKKPECGEIFAHSSN [C12K]: the protein stability index is 4.26.

As for QRTHTGEKPYKGPECGEIFAHSSN [C12G], the protein stability index is 3.98.

For QRTHTGEKPYKFPECGEIFAHSSN [C12F], the protein stability index is 4.12.

As to QRTHTGEKPYKIPECGEIFAHSSN [C12I], the protein stability index came out at 3.6.

With QRTHTGEKPYKPPECGEIFAHSSN [C12P], the protein stability index was 4.42.

Consider QRTHTGEKPYKMPECGEIFAHSSN [C12M], for which the protein stability index came to 4.35.

For the variant QRTHTGEKPYKAPECGEIFAHSSN [C12A], the protein stability index amounted to 4.27.

Turning to QRTHTGEKPYKDPECGEIFAHSSN [C12D], the protein stability index was 5.18.

For the variant QRTHTGEKPYKLPECGEIFAHSSN [C12L], the protein stability index turned out to be 3.77.

Regarding QRTHTGEKPYKTPECGEIFAHSSN [C12T], the protein stability index was found to be 4.57.

For QRTHTGEKPYKHPECGEIFAHSSN [C12H], the protein stability index is 4.13.

For QRTHYGEKPYKCPECGEIFAHSSN [T5Y], the protein stability index worked out at 3.11.

As for QRTHSGEKPYKCPECGEIFAHSSN [T5S], the protein stability index was 3.21.

As to QRTHVGEKPYKCPECGEIFAHSSN [T5V], the protein stability index is 3.06.

With QRTHWGEKPYKCPECGEIFAHSSN [T5W], the protein stability index is 2.33.

Turning to QRTHTGEKPYKCWECGEIFAHSSN [P13W], the protein stability index worked out at 2.71.

For the variant QRTHTGEKPYKCKECGEIFAHSSN [P13K], the protein stability index worked out at 3.59.

As to QRTHTGEKPYKCAECGEIFAHSSN [P13A], the protein stability index is 3.78.

As for QRTHTGEKPYKCCECGEIFAHSSN [P13C], the protein stability index came to 3.1.

With QRTHTGEKPYKCSECGEIFAHSSN [P13S], the protein stability index was 3.41.

With QRTHTGEKPYKCGECGEIFAHSSN [P13G], the protein stability index stood at 3.71.

For QRTHTGEKPYKCTECGEIFAHSSN [P13T], the protein stability index was 3.34.

With QRTHTGEKPYKCDECGEIFAHSSN [P13D], the protein stability index worked out at 4.34.

Regarding QRTHTGEKPYKCNECGEIFAHSSN [P13N], the protein stability index came to 4.29.

As for QRTHTGEKPYKCEECGEIFAHSSN [P13E], the protein stability index came out at 4.69.

With QRTHTGEKPYKCRECGEIFAHSSN [P13R], the protein stability index was 2.94.

Turning to QRTHTGEKPYKCYECGEIFAHSSN [P13Y], the protein stability index came out at 3.57.

Regarding QRTHTGEKPYKCLECGEIFAHSSN [P13L], the protein stability index worked out at 3.56.

In the case of QRTHTGEKPYKCFECGEIFAHSSN [P13F], the protein stability index was 2.52.

As to QRTHTGEKPYKCVECGEIFAHSSN [P13V], the protein stability index came out at 3.48.

Take QRTHTGEKPYKCIECGEIFAHSSN [P13I]: the protein stability index is 3.57.

QRTHTGEKPYKCQECGEIFAHSSN [P13Q]: the protein stability index was found to be 3.67.

For QRTHTGEKPYKCHECGEIFAHSSN [P13H], the protein stability index came to 3.39.

On to QRTHTGEKPYKCMECGEIFAHSSN [P13M], for which the protein stability index worked out at 2.71.

Turning to QRTHTCEKPYKCPECGEIFAHSSN [G6C], the protein stability index turned out to be 4.26.

For QRTHTKEKPYKCPECGEIFAHSSN [G6K], the protein stability index was determined as 3.18.

In the case of QRTHTEEKPYKCPECGEIFAHSSN [G6E], the protein stability index was 3.71.

Consider QRTHTDEKPYKCPECGEIFAHSSN [G6D], for which the protein stability index worked out at 3.23.

Turning to QRTHTWEKPYKCPECGEIFAHSSN [G6W], the protein stability index worked out at 2.74.

As for QRTHTSEKPYKCPECGEIFAHSSN [G6S], the protein stability index was found to be 3.38.

For the variant QRTHTFEKPYKCPECGEIFAHSSN [G6F], the protein stability index came to 2.79.

With QRTHTREKPYKCPECGEIFAHSSN [G6R], the protein stability index came to 2.51.

Consider QRTHTQEKPYKCPECGEIFAHSSN [G6Q], for which the protein stability index is 3.49.

In the case of QRTHTPEKPYKCPECGEIFAHSSN [G6P], the protein stability index is 3.23.

QRTHTVEKPYKCPECGEIFAHSSN [G6V]: the protein stability index is 2.79.

Turning to QRTHTAEKPYKCPECGEIFAHSSN [G6A], the protein stability index was determined as 3.27.

In the case of QRTHTHEKPYKCPECGEIFAHSSN [G6H], the protein stability index is 3.33.

With QRTHTNEKPYKCPECGEIFAHSSN [G6N], the protein stability index is 2.85.

For the variant QRTHTTEKPYKCPECGEIFAHSSN [G6T], the protein stability index amounted to 3.34.

Consider QRTHTMEKPYKCPECGEIFAHSSN [G6M], for which the protein stability index was found to be 3.04.

For the variant QRTHTLEKPYKCPECGEIFAHSSN [G6L], the protein stability index turned out to be 3.27.

On to QRTHTYEKPYKCPECGEIFAHSSN [G6Y], for which the protein stability index came to 2.64.

For the variant QRTHTIEKPYKCPECGEIFAHSSN [G6I], the protein stability index is 2.98.

With QRTHTGEKTYKCPECGEIFAHSSN [P9T], the protein stability index came to 3.43.

Regarding QRTHTGEKDYKCPECGEIFAHSSN [P9D], the protein stability index stood at 3.68.

Take QRTHTGEKQYKCPECGEIFAHSSN [P9Q]: the protein stability index was found to be 3.25.

As for QRTHTGEKCYKCPECGEIFAHSSN [P9C], the protein stability index was 3.53.

As to QRTHTGEKSYKCPECGEIFAHSSN [P9S], the protein stability index was 3.59.

As for QRTHTGEKHYKCPECGEIFAHSSN [P9H], the protein stability index stood at 3.78.

On to QRTHTGEKIYKCPECGEIFAHSSN [P9I], for which the protein stability index was found to be 2.83.

For the variant QRTHTGEKGYKCPECGEIFAHSSN [P9G], the protein stability index is 3.58.

On to QRTHTGEKYYKCPECGEIFAHSSN [P9Y], for which the protein stability index amounted to 2.99.

As for QRTHTGEKLYKCPECGEIFAHSSN [P9L], the protein stability index was determined as 3.65.

Regarding QRTHTGEKAYKCPECGEIFAHSSN [P9A], the protein stability index was 3.52.

Consider QRTHTGEKNYKCPECGEIFAHSSN [P9N], for which the protein stability index turned out to be 3.58.

For QRTHTGEKWYKCPECGEIFAHSSN [P9W], the protein stability index was 2.74.

Regarding QRTHTGEKKYKCPECGEIFAHSSN [P9K], the protein stability index stood at 3.62.

In the case of QRTHTGEKVYKCPECGEIFAHSSN [P9V], the protein stability index came out at 3.5.

In the case of QRTHTGEKMYKCPECGEIFAHSSN [P9M], the protein stability index came to 3.12.

Turning to QRTHTGEKRYKCPECGEIFAHSSN [P9R], the protein stability index was 3.94.

As for QRTHTGEKFYKCPECGEIFAHSSN [P9F], the protein stability index was 3.22.

QRTHTGEKEYKCPECGEIFAHSSN [P9E]: the protein stability index is 3.26.

With QRTHTGEFPYKCPECGEIFAHSSN [K8F], the protein stability index came out at 2.89.

Take QRTHTGEQPYKCPECGEIFAHSSN [K8Q]: the protein stability index came to 3.38.

For the variant QRTHTGEMPYKCPECGEIFAHSSN [K8M], the protein stability index amounted to 3.4.

With QRTHTGENPYKCPECGEIFAHSSN [K8N], the protein stability index came to 3.46.

Take QRTHTGEAPYKCPECGEIFAHSSN [K8A]: the protein stability index worked out at 3.31.

QRTHTGETPYKCPECGEIFAHSSN [K8T]: the protein stability index turned out to be 3.28.

With QRTHTGEVPYKCPECGEIFAHSSN [K8V], the protein stability index was 3.

Regarding QRTHTGERPYKCPECGEIFAHSSN [K8R], the protein stability index stood at 3.74.

As for QRTHTGEPPYKCPECGEIFAHSSN [K8P], the protein stability index amounted to 3.4.

Turning to QRTHTGEGPYKCPECGEIFAHSSN [K8G], the protein stability index stood at 3.81.

For the variant QRTHTGEIPYKCPECGEIFAHSSN [K8I], the protein stability index was 2.66.

On to QRTHTGESPYKCPECGEIFAHSSN [K8S], for which the protein stability index is 3.36.

On to QRTHTGEDPYKCPECGEIFAHSSN [K8D], for which the protein stability index turned out to be 3.3.

QRTHTGEHPYKCPECGEIFAHSSN [K8H]: the protein stability index was determined as 3.35.
